Drawing on publication PMC3672139, this text covers Kd for 1 sequence.

In this series the target is T1, RB1 (human) (UniProt P06400).
T1 sequence: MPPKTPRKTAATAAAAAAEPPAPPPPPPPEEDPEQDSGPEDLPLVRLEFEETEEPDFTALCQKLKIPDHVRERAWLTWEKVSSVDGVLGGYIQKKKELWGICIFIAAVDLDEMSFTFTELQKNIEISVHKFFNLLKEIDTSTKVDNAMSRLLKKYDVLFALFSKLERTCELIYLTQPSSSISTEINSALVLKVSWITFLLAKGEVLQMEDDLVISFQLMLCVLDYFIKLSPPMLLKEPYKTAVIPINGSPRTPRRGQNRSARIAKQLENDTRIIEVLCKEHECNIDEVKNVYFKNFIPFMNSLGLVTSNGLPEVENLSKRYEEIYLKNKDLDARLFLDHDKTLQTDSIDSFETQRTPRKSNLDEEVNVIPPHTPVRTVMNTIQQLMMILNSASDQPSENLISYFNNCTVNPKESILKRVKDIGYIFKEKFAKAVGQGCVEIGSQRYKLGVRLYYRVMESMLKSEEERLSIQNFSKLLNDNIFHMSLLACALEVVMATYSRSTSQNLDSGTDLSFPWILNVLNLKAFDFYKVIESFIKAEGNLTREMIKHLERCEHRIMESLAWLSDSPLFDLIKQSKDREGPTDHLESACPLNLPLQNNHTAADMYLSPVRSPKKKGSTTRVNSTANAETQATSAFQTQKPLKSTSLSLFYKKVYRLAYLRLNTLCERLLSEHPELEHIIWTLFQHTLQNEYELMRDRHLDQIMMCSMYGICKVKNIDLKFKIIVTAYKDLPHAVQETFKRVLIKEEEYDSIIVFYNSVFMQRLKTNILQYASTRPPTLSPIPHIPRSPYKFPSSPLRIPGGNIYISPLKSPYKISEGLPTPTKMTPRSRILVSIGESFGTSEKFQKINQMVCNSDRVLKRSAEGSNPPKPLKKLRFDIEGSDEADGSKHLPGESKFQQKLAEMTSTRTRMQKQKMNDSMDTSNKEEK
Put plainly: SPR. Particulars: DNA immobilized; 650 mM NaCl; 10 mM Tris-HCl, 150 mM NaCl, 5 mM KCl, pH 7.4; EMSA room temperature 30 min, 12% PAGE in TBE; SPR 25 C (RB1 SPR with 650 mM NaCl). (In general: In EMSA bound probe runs differently from free probe, usually more slowly.)

For CGGGGGGTTTTGGGCGGC [RB1 G4], the Kd (as a rule, a measure of binding affinity in units of concentration) was 440 nM.
